Experimental data taken from paper PMC8782169, “The distinct RNA-interaction modes of a small ZnF domain underlay TUT4(7) diverse action in miRNA regulation”.

How the values were obtained:
Settings in all cases: protein: recombinant; tags: N-terminal His6 removed by TEV
hTUT4 CCHC-ZnF2 [1] = target: T1, hTUT4 CCHC-ZnF2 (Homo sapiens, UniProt Q5TAX3 1293-1321); assay: NMR titration (15N HSQC CSP); 10 uM ZnCl2; NMR: 10 mM Tris-HCl pH 7.4, 100 mM NaCl, 0.5 mM TCEP, 10 uM ZnCl2, 25 C, 50 uM protein; BLI: streptavidin sensors, 1-8 uM protein, buffer not in material
T1 chain: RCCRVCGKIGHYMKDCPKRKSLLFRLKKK

hTUT4 CCHC-ZnF2 [2] = target: T1, hTUT4 CCHC-ZnF2; assay: BLI; NMR: 10 mM Tris-HCl pH 7.4, 100 mM NaCl, 0.5 mM TCEP, 10 uM ZnCl2, 25 C, 50 uM protein; BLI: streptavidin sensors, 1-8 uM protein, buffer not in material
hTUT4 CCHC-ZnF2-3 [3] = target: T2, hTUT4 CCHC-ZnF2-3 (Homo sapiens, UniProt Q5TAX3 1293-1382); assay: BLI; affinity very similar to ZnF2 (value in figure only); NMR: 10 mM Tris-HCl pH 7.4, 100 mM NaCl, 0.5 mM TCEP, 10 uM ZnCl2, 25 C, 50 uM protein; BLI: streptavidin sensors, 1-8 uM protein, buffer not in material
T2 sequence: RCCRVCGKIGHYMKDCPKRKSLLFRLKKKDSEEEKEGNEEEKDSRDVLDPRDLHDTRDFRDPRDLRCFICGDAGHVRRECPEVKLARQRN

hTUT4 CCHC-ZnF2-3 [4] = target: T2, hTUT4 CCHC-ZnF2-3; assay: BLI; affinity very similar to ZnF2; ~2-fold slower association and slightly longer lifetime (value in figure only); NMR: 10 mM Tris-HCl pH 7.4, 100 mM NaCl, 0.5 mM TCEP, 10 uM ZnCl2, 25 C, 50 uM protein; BLI: streptavidin sensors, 1-8 uM protein, buffer not in material
hTUT4 CCHC-ZnF2 [5] = target: T1, hTUT4 CCHC-ZnF2; assay: NMR titration (15N HSQC CSP); 10 uM ZnCl2; protein:RNA 1:10; NMR: 10 mM Tris-HCl pH 7.4, 100 mM NaCl, 0.5 mM TCEP, 10 uM ZnCl2, 25 C, 50 uM protein; BLI: streptavidin sensors, 1-8 uM protein, buffer not in material

B1: CGGA RNA (ssRNA)
RNA: CGGA
hTUT4 CCHC-ZnF2 [1]
  Kd: 3.7 ± 0.4 µM

B2: UUUGGA RNA (short RNA with SIA sequence) (ssRNA)
RNA: UUUGGA
hTUT4 CCHC-ZnF2 [2]
  Kd: ~4 µM
hTUT4 CCHC-ZnF2-3 [3]
  binding result: binds

B3: Let-7i miRNA (ssRNA)
RNA: UGAGGUAGUAGUUUGUGCUGUU
hTUT4 CCHC-ZnF2 [2]
  Kd: ~4 µM
hTUT4 CCHC-ZnF2-3 [4]
  binding result: binds

B4: UUUU RNA (ssRNA)
RNA: UUUU
hTUT4 CCHC-ZnF2 [5]
  binding result: no binding
